Results as given in PMC7858651, “Modulation of Increased mGluR1 Signaling by RGS8 Protects Purkinje Cells From Dendritic Reduction and Could Be a Common Mechanism in Diverse Forms of Spinocerebellar Ataxia” (Frontiers in Cell and Developmental Biology, 2020).

Assays:
PKCγ(S361G)-tGFP = target: T1, PKCγ(S361G)-tGFP (human, UniProt P05129 1-697, S361G); assay: co-IP; HEK293T cells expressing mGluR1, transfected with PKCγ-tGFP, PKCγ(S361G)-tGFP or tGFP alone; tGFP trap agarose beads (Chromotek); IPs blotted with anti-mGluR1 and anti-tGFP; amounts quantified and normalised to wild-type PKCγ-tGFP; conditions: partners not purified
T1 construct: Protein Kinase C gamma (PKCγ) with the SCA14-associated human mutation S361G; plasmid pCMV-PKCγ(S361G)-tGFP, a gift (Shimobayashi and Kapfhammer, 2017); also called mutated PKCγ(S361G); mutant PKCγ(S361G); source: HEK293T, transfected (pCMV-PKCγ(S361G)-tGFP), in lysate

wild-type PKCγ-tGFP = target: T2, wild-type PKCγ-tGFP (UniProt P05129 1-697); assay: as above; conditions: partners not purified
T2 construct: Protein Kinase C gamma (PKCγ), wild type; plasmid pCMV-PKCγ-tGFP, a gift (Shimobayashi and Kapfhammer, 2017); also called WT PKCγ; source: HEK293T, transfected (pCMV-PKCγ-tGFP), in lysate

- relative amount bound, normalised to wild-type PKCγ-tGFP (PKCγ(S361G)-tGFP): 1.26 relative to wild-type PKCγ-tGFP
- relative amount bound, normalised to wild-type PKCγ-tGFP (wild-type PKCγ-tGFP): 1 relative to wild-type PKCγ-tGFP
B1: metabotropic glutamate receptor 1 (mGluR1) (receptor, UniProt P97772 21-1199, looked up)
chain: RMPDRKVLLAGASSQRSVARMDGDVIIGALFSVHHQPPAEKVPERKCGEIREQYGIQRVEAMFHTLDKINADPVLLPNITLGSEIRDSCWHSSVALEQSIEFIRDSLISIRDEKDGLNRCLPDGQTLPPGRTKKPIAGVIGPGSSSVAIQVQNLLQLFDIPQIAYSATSIDLSDKTLYKYFLRVVPSDTLQARAMLDIVKRYNWTYVSAVHTEGNYGESGMDAFKELAAQEGLCIAHSDKIYSNAGEKSFDRLLRKLRERLPKARVVVCFCEGMTVRGLLSAMRRLGVVGEFSLIGSDGWADRDEVIEGYEVEANGGITIKLQSPEVRSFDDYFLKLRLDTNTRNPWFPEFWQHRFQCRLPGHLLENPNFKKVCTGNESLEENYVQDSKMGFVINAIYAMAHGLQNMHHALCPGYVGLCDAMKPIDGRKLLDFLIKSSFVGVSGEEVWFDEKGDAPGRYDIMNLQYTEANRYDYVHVGTWHEGVLNIDDYKIQMNKSGMVRSVCSEPCLKGQIKVIRKGEVSCCWICTACKENEFVQDEFTCRACDLGWWPNAELTGCEPITIRYLEWSDIESIIAIAFSCLGILVTLFVTLIFVLYRDTPVVKSSSRELCYIILAGIFLGYVCPFTLIAKPTTTSCYLQRLLVGLSSAMCYSALVTKTNRIARILAGSKKKICTRKPRFMSAWAQVIIASILISVQLTLVVTLIIMEPPMPILSYPSIKEVYLICNTSNLGVVAPVGYNGLLIMSCTYYAFKTRNVPANFNEAKYIAFTMYTTCIIWLAFVPIYFGSNYKIITTCFAVSLSVTVALGCMFTPKMYIIIAKPERNVRSAFTTSDVVRMHVGDGKLPCRSNTFLNIFRRKKPGAGNANSNGKSVSWSEPGGRQAPKGQHVWQRLSVHVKTNETACNQTAVIKPLTKSYQGSGKSLTFSDASTKTLYNVEEEDNTPSTHFSPPSSPSMVVHRRGPPVATTPPLPPHLSAEETPLFLADSVIPKGLPPPLPQQQQQPPPQPPPQQPKSLMDQLQGVVTNFGSGIPDFHAVLAGPGTPGNGLRSLYPPPPPPQHLQMLPLQLSTFREEPISPPGEDDDDDSSERFKLLQEFVYEREGNTEEDDLEEEEDLPAASKLTPEDSPALTPPSPFRDSVASGSSVPSSPVSESVLCTPPNVTYASVILRDYKQSSSTL
notes: metabotropic glutamate receptor 1 (mGluR1), expressed from the vector pCMV-mGluR1 bought from Origene; source: HEK293T, transfected (pCMV-mGluR1, Origene), in lysate
